The source of these data is publication PMC10138348, “Continuous Fluorescent Sirtuin Activity Assay Based on Fatty Acylated Lysines” (International Journal of Molecular Sciences, 2023).

The target in assay [1] is F4, TNFα-derived peptide with a myristoylated lysine and fluorescein-labelled cysteine in the +2 position. The assay is described as follows: fluorescence polarisation; BSA in serial dilution from 752 µM, labelled peptide fixed; 384-well plate, 20 mM Tris-HCl pH 7.8, 150 mM NaCl, 5 mM MgCl2; three independent replicates. On the technique in general: In fluorescence polarisation assays a small probe gives low polarisation when free and higher when bound to something large.

Assay [2] concerns the target F6, deacylated fluorescein-labelled peptide product of F4 (fluorophore in +2 position). The description is as above.
For assay [3], the target named is F4, TNFα-derived peptide with a myristoylated lysine and fluorescein-labelled cysteine in the +2 position. The assay is described as follows: other fluorescence titration; fluorescence spectra of the labelled peptide with increasing concentrations of BSA; excitation 490 nm, relative intensity at 517 nm against BSA concentration; n = 1.
The target in assay [4] is F6, deacylated fluorescein-labelled peptide product of F4 (fluorophore in +2 position). Described as above.

Sequence of bovine serum albumin (P02769 25-607): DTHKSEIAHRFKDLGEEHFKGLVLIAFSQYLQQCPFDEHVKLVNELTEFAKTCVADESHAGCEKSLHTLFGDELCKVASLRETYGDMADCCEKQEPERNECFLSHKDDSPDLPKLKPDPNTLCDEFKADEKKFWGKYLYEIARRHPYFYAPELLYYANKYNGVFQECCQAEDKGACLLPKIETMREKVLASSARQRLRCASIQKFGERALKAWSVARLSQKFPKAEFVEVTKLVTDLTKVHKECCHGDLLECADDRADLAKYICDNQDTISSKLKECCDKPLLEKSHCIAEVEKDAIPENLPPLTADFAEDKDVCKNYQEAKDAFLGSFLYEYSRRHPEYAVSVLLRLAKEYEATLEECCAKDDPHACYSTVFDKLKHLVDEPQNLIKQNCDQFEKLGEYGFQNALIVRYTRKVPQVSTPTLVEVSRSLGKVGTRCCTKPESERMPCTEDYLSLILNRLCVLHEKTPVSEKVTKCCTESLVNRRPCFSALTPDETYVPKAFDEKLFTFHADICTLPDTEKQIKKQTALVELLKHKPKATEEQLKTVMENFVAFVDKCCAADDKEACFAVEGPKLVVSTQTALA

By Kd is commonly meant a measure of binding affinity in units of concentration. Lower therefore signals a tighter complex. For the substance “bovine serum albumin (from UniProt P02769 25-607) (natural protein)”, the Kd came to 1600 nM in assay [1] and 1200 nM in assay [3]. For the same substance, the fold KD against the F4/BSA complex in assay [2] and in assay [4] was over 100 fold each time.
